The supplement of paper PMC9170038

Key:
MS2 coat protein [1] = experiment: apparent KD of MS2 coat protein, switch OFF state (with FMN for OFF switches, without FMN for ON switches); designed switch direction (-1 OFF switch, 1 ON switch): -1; higher = weaker reporter binding; conditions: FMN input: 0 or 200 uM; Eterna round: R93 (includes R88 designs)
How it was run: (§1)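 Binding of SNAP-549-labelled MS2 coat protein was measured on designed RNA switches transcribed on-chip from Illumina sequencing clusters. The protein rose in twofold steps from 0.7 or 1.5 nM to 3 µM, with 0.8–1.5 h per step early on and 10–20 min per step later, in 100 mM Tris-HCl pH 7.5, 80 mM KCl, 4 mM MgCl2, without or with constant ligand. Each design's apparent KD is the median of fits to its normalised cluster binding curves.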

MS2 coat protein [2] = experiment: apparent KD of MS2 coat protein, switch ON state; designed switch direction (-1 OFF switch, 1 ON switch): -1; higher = weaker reporter binding; conditions: FMN input: 0 or 200 uM; Eterna round: R93 (includes R88 designs)
How it was run: as §1

| Sequence | apparent KD of MS2 coat protein (MS2 coat protein [1]) | apparent KD of MS2 coat protein (MS2 coat protein [2]) |
| --- | --- | --- |
| AAAAAGGUAGGAUAUGCAAAAAAUAAUUUAAAAAAAAAAAAACAUGAGGAUCACCCAUGUAGAAGGACCAAAAA [Design 2.0] | 28.8 nM | 25.9 nM |
| AAAGGAUCAGGAUAUGUGUGGAAAAAGUGUGUCCCAAAAAAACAUGAGGAUCACCCAUGUAGAAGGGAUCCAAA [Mod 5 of Normal (20/19) by Nando, Round 1] | 97.8 nM | 44.9 nM |
| GGUUGGCGAGGAUAUACAUGAGGAUCACCCAUGUGAGAGGAAAAAGUGAGGAGGAGAAGUAGAAGGCGCUGACG [salish99-ex3-22] | 138 nM | 29.6 nM |
| AAGAACUGAGGAUAUACACAAGAAAAGAAAAGAAAGAAAGAACAUGAGGAUCACCCAUGUAGAAGGCGGAAGAA [Merhotepre Sobekhotep V] | 26.5 nM | 39.3 nM |
| AGAAAGGCAGGAUAUACAUGAGGAUCACCCAUGUUAAGAAAGACGGAAACGUCAAGAAGUAGAAGGGCCAAGAA [Shaken, but not stirred] | 19.7 nM | 21.9 nM |
| AGUCGGCGAGGAUAUACAUGAGGAUCACCCAUGUGAGAGAAAAAAGUGAGUUAGACAUGUAGAAGGCGCUGACA [JL Lego Mod 8] | 26.8 nM | 54 nM |
| AAGCUGGUAGGAUAUACUAGGGCAACUAAUGCACCGAGAGGACAUGAGGAUCACCCAUGUAGAAGGGCCAGAAA [Mat - Exclusion 2 - JL mod - D63] | 82.3 nM | 114 nM |
| AAAAAGGUAGGAUAUACGAAAAAAAAAAGGUGAAAAAAAAAACAUGAGGAUCACCCAUGUAGAAGGACCAAAAA [Ex 2 sub 1 70% 3] | 62 nM | 36.5 nM |
| AAAAAACAUGAGGAUCACCCAUGUGAGGAUAUGAAAUUACUAAGACAACUGUAAUCAAUCAGAAGGCACAACAA [JR_Exc--1_Sub1207] | 38.6 nM | 23.6 nM |
| AAGAAACAUGAGGAUCACCCAUGUCAGGAUAUGAAAAAGAAAAGAAAAGAAAGAAGAAUCAGAAGGGACAAAGG [Neferkauhor Khuwihapi] | 27.4 nM | 74.1 nM |
| AAGAAACAUGAGGAUCACCCAUGUGAGGAUAUUCAAAAGAAAAGAAAAGAAAGAAGAAGAAGAAGGCACAAAGG [Neferkamin] | 45.5 nM | 24.7 nM |
| AAACAACAUGAGGAUCACCCAUGUCAGGAUAUGAACGAAAUAAAAUAAAAAUAAAAGUUCAGAAGGGACGAAAA [Mat - Exclusion 1 - Eli mod - D18] | 50.1 nM | 36.7 nM |
| AGAAUACAUGAGGAUCACCCAUGUGAGGAUAUGUGAAGAAAAAGAAAAGAAAAGAAACACAGAAGGCACAAAAG [EX 1 May 17] | 69.3 nM | 29.7 nM |
| AAAAAACAUGAGGAUCACCCAUGUGAGGAUAUUGGUAUUGAGGGUAUAAUCUCAAUAGCGAGAAGGCGCAUAAA [Brourd 613 Mod 14 - Jieux - Exclusion 1] | 45.3 nM | 31.7 nM |
| AAUAAUGGAGGAUAUACUAAAGAAAUGAAAAGAAAUAAAGAACAUGAGGAUCACCCAUGUAGAAGGCCAAAUAA [Khamure] | 27.8 nM | 26 nM |
| AGAAAGUCAGGAUAUCAGAAUAAGUCGAAAACGACUAGUAAUGAGAAGGGACAUGAGGAUCACCCAUGUAAGAA [Ex4 sub 3] | 37.1 nM | 49 nM |
| CUCAAGUAAGGAUAUGUAAGAAAAGAAGAGAAAGAAAAGAAACAGAAGGUACAUGAGGAUCACCCAUGUAAGAA [EteRNA is fun!] | 28.2 nM | 30.4 nM |
| AAAAAUCGAGGAUAUACAUGAGGAUCACCCAUGUAAAAAAAAAAAAAGGGAAAAAAAAGUAGAAGGCGAAAAAA [Sekhemre-Heruhirmaat Intef VII] | 30 nM | 58 nM |
| AAGGGACAUGAGGAUCACCCAUGUCAGGAUAUGAUGCGAAUAAAGAAAGAAUAAAGCAUCAGAAGGGACGCCAA [Mat - Exclusion 1 - Eli mod - D65] | 25.7 nM | 21.1 nM |
| AAGAGUAGAGGAUAUACAUGAGGAUCACCCAUGUAAUCCAGAUAAGGAAGCAUGGCGUGUAGAAGGCUGCAUGA [MOD of Nando (MS2 Riboswitches- Exclusion 3)] | 35.2 nM | 28.2 nM |
| AUCUACCUAGGAUAUACAUGAGGAUCACCCAUGUACAGAUACAACUAGGGAAACACACGUAGAAGGAGGUAGAU [JR_Exc003_Sub1207] | 37.3 nM | 15.6 nM |
| AAAAGGUGAGGAUAUACAUGAGGAUCACCCAUGUAGAAAGGAAGUGUAAAAAAAAAGUGUAGAAGGCAUCAUGA [MS2 Riboswitches On Chip Exclusion 3 wbt3] | 48 nM | 39.2 nM |

| Sequence | apparent KD of MS2 coat protein (MS2 coat protein [1]) | apparent KD of MS2 coat protein (MS2 coat protein [2]) |
| --- | --- | --- |
| AAAAAACAUGAGGAUCACCCAUGUAAGGAUAUGCUAGGAAAAAGAAAAAUAAAAACUAGCAGAAGGUACAUUAA [JL wbt mod 9] | 38.3 nM | 26.6 nM |
| AAAAACGCAGGAUAUACAUGAGGAUCACCCAUGUAAAAAAAAAAAAAGGGAAAAAAAAGUAGAAGGGCGAAAAA [Menkhaure Snaaib] | 43.3 nM | 21.4 nM |
| AGCUAGUCAGGAUAUACGCAAACGAACGAAGCUGAGAAGGGACAUGAGGAUCACCCAUGUAGAAGGGACUAGCA [Diamond 32] | 55.6 nM | 25.3 nM |
| UAUAACGAAGGAUAUACUAACGAAACUAAUGCAUAUAUAUAACAUGAGGAUCACCCAUGUAGAAGGUCGAGAAU [JR_Exc002_Sub011] | 28.8 nM | 23.7 nM |
| UCCGGACAUGAGGAUCACCCAUGUGAGGAUAUAUAACGUGGGACUGGAAACAAUCCCAAUAGAAGGCACAUGAC [Reisatridi] | 20.2 nM | 21.5 nM |
| AUCAUGUAAGGAUAUAAAAGAAAAGAAAAGAAAGAAAAGAAUUAGAAGGUACAUGAGGAUCACCCAUGUAAGAA [EteRNA is fun!] | 17.9 nM | 30.3 nM |
| AAGAGUACAGGAUAUAUGUGAAAAGAGUCGAAAGACUCAAAACAUGAGGAUCACCCAUGUAGAAGGGUACUCAA [Diamond 74] | 27.3 nM | 52.5 nM |
| AAAAGCACAGGAUAUACAAGGAUAUGACGAAAGUCAUAAAAACAUGAGGAUCACCCAUGUAGAAGGGUGCAAAA [Mod of Meechl's... 64% 3] | 136 nM | 206 nM |
| AACUGACAUGAGGAUCACCCAUGUCAGGAUAUGACUUGAUAGAAAAAAAAAUAUCAUGUCAGAAGGGACAUGGG [Design 56 :P Sub-opt I] | 12.8 nM | 21.4 nM |
| AAGAAGUAAGGAUAUACAAGAAAGAAAGAAAAGAAAAGAAAACAUGAGGAUCACCCAUGUAGAAGGUACUAGAA [EteRNA is fun!] | 14.9 nM | 24.1 nM |
| GAAAACAGAGGAUAUACAAAAUUGACACGAAAGGUGCAAAAACAUGAGGAUCACCCAUGUAGAAGGCUGAAGAA [Meechl MS2 Ex2 3] | 21.1 nM | 25.3 nM |
| ACAUGUACAGGAUAUACGUGGAAAAAAAAAAAAAAAAAACUACAUGAGGAUCACCCAUGUAGAAGGGUACAUGA [Ex2 Design 194: Random 12C] | 37 nM | 26.5 nM |
| AGCUAGCGAGGAUAUACGAACAUGUCAAAAGACGUGAAGGGACAUGAGGAUCACCCAUGUAGAAGGCGCUAGCA [JL 74% mod 5] | 144 nM | 41.1 nM |
| AGAAAGGUAGGAUAUACGAAAAAAAAGGGUAGAAAAAAAACACAUGAGGAUCACCCAUGUAGAAGGACCAAAGA [Mat - Exclusion 2 - Tesla mod - D31] | 47.5 nM | 35.2 nM |
| AGCACGUCAGGAUAUACGAAAAAAAAGGGUAAAAAAAACACACAUGAGGAUCACCCAUGUAGAAGGGACAAGCA [Diamond 94] | 86.8 nM | 66.8 nM |
| AGAAUACAUGAGGAUCACCCAUGUGAGGAUAUAUGAAGAAAAAGAAAAGAAAAGAAACAUAGAAGGCACAAAAG [EX 1 May 16] | 86.7 nM | 16.1 nM |
| AAAAAGAGAGGAUAUACAUGAGGAUCACCCAUGUAAAAAAGAAGAAAGAAAAAAAAAUGUAGAAGGCUCAAAAA ['Exclusion 3'] | 34.3 nM | 35.9 nM |
| AAAAAACAUGAGGAUCACCCAUGUCAGGAUAUGCUAUGGAAAAUAAAAAUAAAACAUAGCAGAAGGGACACCAA [64%, Meechl, 2] | 58.1 nM | 32.8 nM |
| AAAAAACAUGAGGAUCACCCAUGUAAGGAUAUGCUAGGAAAAAGAAAAAUAAAAACUAGCAGAAGGUACAUGAA [JL wbt mod 11] | 113 nM | 33.2 nM |
| AAAAGGAUAGGAUAUACAUGAGGAUCACCCAUGUUUAUAAAUAAAAGAAAUAAAGAAAGUAGAAGGGUCAAGAA [LROPPY Exclusion 3 - v07_deltaG=3.4] | 22.4 nM | 19.6 nM |
| AAGAACUCAGGAUAUACAUGAGGAUCACCCAUGUAAAAGAAAGAAAAGGGAAAGAAAAGUAGAAGGGAGAAGAA [Neferkheperure-waenre Amenhotep IV] | 36.2 nM | 32.7 nM |
| AGUUGGCGAGGAUAUACAUGAGGAUCACCCAUGUGAGAGAAAAAAGUGAGAAAGAAAUGUAGAAGGCGCUCACA [JL Lego Mod 13] | 37.5 nM | 62.8 nM |
